From patent publication US20180202002

Molecular target: T1, N-terminal tagged Cyclin D1 (FLAG-HA-Cyclin D1, tag at the N-terminus), P25322
T1 chain: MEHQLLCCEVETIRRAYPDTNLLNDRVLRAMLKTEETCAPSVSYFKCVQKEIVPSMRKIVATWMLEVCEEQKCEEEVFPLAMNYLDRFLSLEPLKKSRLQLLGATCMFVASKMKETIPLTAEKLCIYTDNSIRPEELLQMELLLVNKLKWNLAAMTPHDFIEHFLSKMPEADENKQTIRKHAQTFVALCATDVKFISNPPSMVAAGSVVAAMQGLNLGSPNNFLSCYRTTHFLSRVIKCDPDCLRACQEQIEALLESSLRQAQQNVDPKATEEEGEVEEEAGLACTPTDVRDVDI

B1: caspase 3 (protein)
chain: MENNKTSVDSKSINNFEVKTIHGSKSVDSGIYLDSSYKMDYPEMGICIIINNKNFHKSTGMSSRSGTDVDAANLRETFMGLKYQVRNKNDLTREDILELMDSVSKEDHSKRSSFVCVILSHGDEGVIYGTNGPVELKKLTSFFRGDYCRSLTGKPKLFIIQACRGTELDCGIETDSGTDEEMACQKIPVEADFLYAYSTAPGYYSWRNSKDGSWFIQSLCSMLKLYAHKLEFMHILTRVNRKVATEFESFSLDSTFHAKKQIPCIVSMLTKELYFYH
  levels of cleaved PARP (Western blot) after treatment with 5-FU: The levels of cleaved PARP increase in RAS or ErbB2 cancer cells after treatment with 5-FU, although limited by the Cyclin D1
